No end group written: not given here.
Target: α5β1 integrin receptor on primary mesangial cells
Assay: cell-based or functional assay

## CGRGDSP (also: cyclic GRGDSP part, ring closure not given here) [modified CGRGDSP peptide (D-peptide)]
  inhibition of MC adhesion to fibronectin-coated plates, enhanced potency of D- vs. E-control peptide compared to GRGDSP, at 200 µg/ml: 2.4 fold
  inhibition of MC adhesion to fibronectin-coated plates, enhanced potency of D- vs. E-control peptide compared to GRGDSP, at 400 µg/ml: 2.8 fold
  inhibition of mesangial cell binding to FN-coated plates, potency against GRGDSP: ~3 fold more potent than GRGDSP
